Experimental data from PMC6053543.

Target: β1 wild-type cytoplasmic tail peptide
Assay: pull-down

recombinant full length talin-1, P26039 1-2541
fold more talin pulled down with equal molar FL-Kank2 than with GST only: 5 fold
fold more talin pulled down with equal molar GST-KN than with GST only: 5 fold
